Measured values reported in the supplement of paper PMC10567573.

B1: CPXM2 (parent)
chain: TASTKNCMVGYDMGATRCDFTLSK

Variants of: B1
Assay: protein stability index of a GFP-peptide fusion (GPS, HEK-293T) (PSI 1-6); higher = more stable
Details: c terminus: a fixed tail appended
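Further: lentivirally expressed fusions sorted by FACS into six bins by GFP to DsRed ratio, PSI derived from sequencing read proportions per bin multiplied by bin number.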

Protein stability index of substitutions, site by site:
G10: H 1.74 | N 1.86 | C 2.2 | Y 3.56 | V 2.72 | E 2.69 | W 1.64 | K 2.42 | I 1.67 | R 1.84 | T 1.93 | S 2.75 | Q 1.73 | A 1.97 | F 1.58 | P 1.76 | L 2.38 | M 1.96 | D 2.37
Y11: T 2.85 | R 2.59 | I 2.06 | S 2.28 | M 2.49 | Q 3 | C 2.07 | W 2.23 | L 2.41 | A 2.92 | V 2.33 | G 3.49 | N 2.6 | K 2.96 | H 3.32 | D 3.33 | E 3.49 | F 1.38 | P 2.31
M13: T 2.99 | W 2.02 | Q 3.19 | I 2.11 | F 2.01 | A 2.74 | G 2.99 | E 3.92 | C 2.08 | D 3.76 | N 3.21 | Y 2.54 | S 2.81 | L 2.58 | K 1.91 | V 3.02 | R 2.5 | P 2.31 | H 2.64
G14: P 2.84 | M 2.17 | F 1.93 | H 3 | N 3.17 | R 2.88 | Q 2.44 | L 2.31 | E 2.97 | A 2.89 | I 2.31 | W 2.15 | S 2.5 | D 3.63 | Y 1.59 | C 1.99 | T 2.76 | K 2.76 | V 1.75
A15: N 2.62 | F 2.51 | D 2.78 | K 2.84 | E 2.75 | T 2.37 | I 2.58 | Q 2.77 | C 1.8 | L 2.71 | V 3.16 | M 2.07 | R 1.89 | H 2.89 | S 1.68 | G 2.61 | P 2.33
D12: A 2.37 | V 2.44 | G 1.89 | F 1.62 | S 2.72 | W 1.98 | Q 2.14 | E 2.02 | C 1.88 | L 1.21 | R 2.58 | M 1.46 | N 2.02 | P 2.15 | K 2.47 | T 1.98 | Y 1.69 | I 1.58 | H 2.14
C7: K 3.18 | V 3.46 | P 3.48 | F 3.21 | G 3.75 | R 3.26 | I 3.11 | Q 3.69 | N 3.84 | L 3.27 | W 2.99 | M 3.06 | E 4.44 | T 3.24 | Y 2.71 | S 3.77 | H 3.48
V9: N 2.81 | A 2.62 | P 2.89 | W 2.09 | D 3.58 | C 2.31 | F 1.63 | S 2.36 | Y 2 | L 2.05 | M 2.42 | T 3.22 | E 3.33 | H 2.3 | Q 3.5 | G 3.52 | I 2.49 | K 2.12 | R 2.18
M8: F 2.73 | T 2.42 | W 2.15 | V 2.03 | H 2.76 | N 3.95 | P 2.06 | I 1.62 | E 4.05 | C 1.77 | G 2.08 | L 2.14 | D 4.13 | Q 2.62 | A 1.88 | R 1.35 | Y 2.22 | S 2.48 | K 3.26
